Measurements taken from paper PMC11686323 (Communications Biology, 2024).

Molecular target: the molecule itself
Assay: cryo-EM structure

B1: phosphoglucomutase GlmM of Lactococcus lactis (enzyme, UniProt A2RIG0 1-452, looked up)
chain: MGKYFGTDGVRGEANVELTPEMAFKLGRFGGYVLSQHELETPKVYVGRDTRISGQMLASSLISGLLSVGIEVYDLGVIATPGVAYLVKKDGASAGVMISASHNPALDNGIKFFGGDGYKLEDEKELEIEALIDAKEDTLPRPSAQGLGMLHDYIEGVRKYQAFLKTTAEGDFEGYNVVLDTANGASYTSARAVFADLKANLTVIGENPDGLNINVKVGSTHPEAMAKKVVETGSDLGLAFDGDADRLIAVDENGEIVDGDKIMFIVGKYLLEQGKLAQDTLVTTVMSNLGFHLALEEAGINSVITAVGDRYVVEEMKKNNYNFGGEQSGHMIFLDYNTTGDGQLSAIQLLKVMRETGKTLSELASEVTIYPQKLVNVRVKDNAAKKSAMDVPAIQKVISEMETSMNGKGRILVRPSGTEPLLRVMAEAPTHEQVDHVVDTIVEVVEEEIGVK
**Q.** Which “stoichiometry N” value does the source give for B1 here?
**A.** The value was 2.
